B1: bZIP63 (protoplast two-hybrid fusion) [Arabidopsis thaliana] / bZIP11 (protoplast two-hybrid fusion) [Arabidopsis thaliana] (parent)
chain 1: MEKVFSDEEISGNHHWSVNGMTSLNRSASEWAFNRFIQESSAAADDGESTTACGVSVSSPPNVPVDSEEYRAFLKSKLNLACAAVAMKRGTFIKPQDTSGRSDNGGANESEQASLASSKATPMMSSAITSGSELSGDEEEADGETNMNPTNVKRVKRMLSNRESARRSRRRKQAHLSELETQVSQLRVENSKLMKGLTDVTQTFNDASVENRVLKANIETLRAKVKMAEETVKRLTGFNPMFHNMPQIVSTVSLPSETSNSPDTTSSQVTTPEIISSGNKGKALIGCKMNRTASMRRVESLEHLQKRIRSVGDQ
chain 2: MESSSSGTTSSTIQTSSGSEESLMEQRKRKRMLSNRESARRSRMKKQKLLDDLTAQVNHLKKENTEIVTSVSITTQHYLTVEAENSVLRAQLDELNHRLQSLNDIIEFLDSSNNNNNNNMGMCSNPLVGLECDDFFVNQMNMSYIMNQPLMASSDALMY
B2: bZIP63 (protoplast two-hybrid fusion) [Arabidopsis thaliana] / bZIP63 (protoplast two-hybrid fusion) [Arabidopsis thaliana] (parent)
chain 1: B1 chain 1
chain 2: B1 chain 1

Key:
[1] = variants of: B1; assay: protoplast two-hybrid (P2H) assay; conditions: for response (% of signal with wt bZIP63 and AKIN10): - AKIN10 (no co-transformation), parent: 8, read off a plot; for percent of parent: with bZIP11 (protoplast two-hybrid fusion) [Arabidopsis thaliana], + AKIN10 co-transformation, parent: 100, read off a plot
[2] = variants of: B2; assay: protoplast two-hybrid (P2H) assay; conditions: for response (% of signal with wt bZIP63 and AKIN10): - AKIN10 (no co-transformation), parent: 13, read off a plot; for percent of parent: with bZIP63 (protoplast two-hybrid fusion) [Arabidopsis thaliana], + AKIN10 co-transformation, parent: 100, read off a plot

Row | Variant | response (% of signal with wt bZIP63 and AKIN10) [1] | percent of parent [1] [%] | response (% of signal with wt bZIP63 and AKIN10) [2] | percent of parent [2] [%]
1 | chain 1 S29A | 11 | 32 | – | –
2 | chain 1 S294A S300A | 10 | 110 | – | –
3 | chain 1 S300A | 13 | 100 | – | –
4 | chain 1 S294A | – | – | 10 | 75
5 | chain 1 S29A S294A S300A | – | – | 11 | –

The remaining lines, values ahead:

Row | response (% of signal with wt bZIP63 and AKIN10) [1] | percent of parent [1] [%] | response (% of signal with wt bZIP63 and AKIN10) [2] | percent of parent [2] [%] | Variant
6 | 7.5 | 27 | – | – | chain 1 S29A S294A S300A
7 | 7 | 110 | – | – | chain 1 S294A
8 | – | – | 7 | 44 | chain 1 S29A
9 | – | – | 8 | 79 | chain 1 S300A
10 | – | – | 10 | 67 | chain 1 S294A S300A

From publication PMC4558565
